2 molecules from CN117327177A (dated 2024) can be followed below.

Test [1] concerns the target 脂联素抗原(购自HYTEST，8AN7) (UniProt Q15848). The test can be described thus: indirect ELISA, adiponectin coated at 0.5 ug/ml, antibody at 0.78 ng/ml. (In general: ELISA stands for enzyme-linked immunosorbent assay.)
Test [2] has the same target. The test can be described thus: indirect ELISA, adiponectin coated at 0.5 ug/ml, antibody at 6.25 ng/ml.
The target is the same in test [3]. The test can be described thus: indirect ELISA, adiponectin coated at 0.5 ug/ml, antibody at 0.39 ng/ml.
Test [4] shares this target. The test can be described thus: indirect ELISA, adiponectin coated at 0.5 ug/ml, antibody at 0 ng/ml (blank).
Test [5] shares this target. The test can be described thus: indirect ELISA, adiponectin coated at 0.5 ug/ml, antibody at 1.56 ng/ml.
For test [6] the target is unchanged. The test can be described thus: indirect ELISA, adiponectin coated at 0.5 ug/ml, antibody at 3.13 ng/ml.
Test [7] shares this target. The test can be described thus: BLI, antibody captured on AMC sensor, adiponectin antigen in gradient dilution in PBST. A general note: In BLI a coated tip is dipped into the sample, and binding shifts an interference pattern.
In the next test the target is T1, Adiponectin (human, UniProt Q15848).
T1 chain: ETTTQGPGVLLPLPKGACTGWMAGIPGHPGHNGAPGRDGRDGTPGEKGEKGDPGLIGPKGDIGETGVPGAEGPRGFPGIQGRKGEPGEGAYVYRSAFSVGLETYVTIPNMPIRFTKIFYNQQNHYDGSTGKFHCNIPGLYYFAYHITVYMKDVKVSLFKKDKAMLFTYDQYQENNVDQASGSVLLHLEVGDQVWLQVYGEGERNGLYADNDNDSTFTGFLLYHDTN
The test can be described thus: BLI.

Turning to 对照 (antibody), the OD450 (ref 630 nm) in the test with 脂联素抗原(购自HYTEST，8AN7) [1] is 0.451 OD; with 脂联素抗原(购自HYTEST，8AN7) [2] it was 1.8 OD; with 脂联素抗原(购自HYTEST，8AN7) [3] it was 0.261 OD; in the test with 脂联素抗原(购自HYTEST，8AN7) [4], 0.055 OD; with 脂联素抗原(购自HYTEST，8AN7) [5], 0.802 OD; with 脂联素抗原(购自HYTEST，8AN7) [6], 1.43 OD. Further, the Kd (in general, a measure of binding affinity in units of concentration) with 脂联素抗原(购自HYTEST，8AN7) [7] was found to be 87.1 nM. Besides, the koff (in general, the first-order rate constant of dissociation) in the test with 脂联素抗原(购自HYTEST，8AN7) [7] was 0.00923 s⁻¹. Moreover, the kon (usually a measure of how fast the partners come together) with 脂联素抗原(购自HYTEST，8AN7) [7] came out at 106000 M⁻¹ s⁻¹.

B1: Anti-APN 6C2mut1 (antibody, V domains shown)
VH: EVQLQQSGPELVKPGASVKMSCKASGYSFTGYFINWVKQSHGKSLEWIGRINPYNGDTFYNEKFKGKATFTADISSSAAHMELLSLTSEDSAVYYCGRGGGLQRPYFDYWGQGTTLTVSP
VL: DIQMTQSSSYLSVSLGGRVTITCKASDHVNNWLAWYQQKPGNAPRLLISGATNLETGVPSRFSGSGSGKDYTLTITSVQTEDVATYYCQQYWISALTFGAGTKLELN
Regarding B1, the OD450 (ref 630 nm) in the test with 脂联素抗原(购自HYTEST，8AN7) [1] came to 1.79 OD; in the test with 脂联素抗原(购自HYTEST，8AN7) [2], 2.33 OD; with 脂联素抗原(购自HYTEST，8AN7) [3], 1.02 OD; in the test with 脂联素抗原(购自HYTEST，8AN7) [4], 0.074 OD; with 脂联素抗原(购自HYTEST，8AN7) [5] it was 2.06 OD; in the test with 脂联素抗原(购自HYTEST，8AN7) [6], 2.26 OD. This molecule registered a Kd with Adiponectin of 0.374 nM. Moreover, in the test with 脂联素抗原(购自HYTEST，8AN7) [7], the koff was 0.00209 s⁻¹. Besides, in the test with 脂联素抗原(购自HYTEST，8AN7) [7], the kon was 5.58e+06 M⁻¹ s⁻¹.
